According to the supplement of paper PMC9732359:
± gives the uncertainty stated by the source.

Assay: protein stability index of a GFP-peptide fusion (yeast GPS) (PSI 1-4); higher = more stable; sorted into four equal gates, so the index is relative within each strain
Procedure, shortened: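 The protein stability index of a peptide was calculated by multiplying its read frequency in each gate by that gate's number and adding the products. The peptides were tiled 17-residue stretches of yeast proteins, fused downstream of GFP on a Cherry-expressing plasmid and carried in yeast as a pooled library. Mid-log cultures in leucine-free medium were sorted into four equal gates by GFP/Cherry ratio, and each gate's plasmids were PCR-amplified and Illumina-sequenced.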

Row | Sequence | protein stability index (doa10∆) | protein stability index (pdr5∆) | protein stability index (san1∆) | protein stability index (ubr1∆)
1 | LNYGNICEPKETLSIFT [YJL039C/NUP192] | 2.02 ± 0.061 | 1.75 ± 0.056 | 2.02 ± 0.12 | 1.73 ± 0.054
2 | AKGCEVVVSGKLRAARA [RPS3] | 3.15 ± 0.14 | 3.24 ± 0.22 | 3.42 ± 0.14 | 3.25 ± 0.28
3 | IEWAEHHRDSNFPDEDD [SKP1] | 3.1 ± 0.065 | 3.17 ± 0.059 | 3.08 ± 0.046 | 3.33 ± 0.057
4 | NMMEHWDYLQLTVAMYI [RPO31] | 2.08 ± 0.061 | 2.2 ± 0.063 | 2.4 ± 0.15 | 1.85 ± 0.063
5 | YLINGKRFKRKDNAKIS [SRP68] | 1.36 ± 0.075 | 1.58 ± 0.096 | 1.75 ± 0.12 | 1.63 ± 0.049
6 | SGVMDKSVLGDGKKHSV [RPO31] | 3.73 ± 0.21 | 3.71 ± 0.28 | 3.31 ± 0.2 | 
7 | AARKAEKAKSAGVQGSK [RPL24B] | 3.27 ± 0.087 | 3.11 ± 0.068 | 3.18 ± 0.065 | 3.29 ± 0.042
8 | HYLFNTFTFTAHMGVLL [SWP82] | 1.69 ± 0.039 | 1.68 ± 0.036 | 1.39 ± 0.072 | 1.51 ± 0.024
9 | GVTDLFRHFIGIKAKHD [ISW2] | 1.2 ± 0.13 | 1.43 ± 0.11 |  | 
10 | QEEEGELEHLTKKSKLE [DSN1] | 3.02 ± 0.053 | 3.17 ± 0.056 | 3.14 ± 0.043 | 3.18 ± 0.043
11 | LADYIVEVLLVNYNSDM [NUT1] | 1.28 ± 0.047 | 1.35 ± 0.037 | 1.39 ± 0.14 | 1.2 ± 0.039
12 | IAAMVAQKCGWTIPHKK [SIR2] | 2.33 ± 0.096 | 2.41 ± 0.2 | 2.06 ± 0.15 | 2.35 ± 0.051
13 | PNETSEIAQANSRNAIR [RPL19A] | 2.7 ± 0.15 | 2.92 ± 0.095 | 2.54 ± 0.14 | 3.05 ± 0.13
14 | HLGLDDPQDVFNYNIFM [SIR2] | 2.99 ± 0.087 | 3.2 ± 0.14 | 3.24 ± 0.13 | 3.26 ± 0.078
15 | KSIINSQRPGARILARS [ITC1] |  | 2.18 ± 0.16 | 2.45 ± 0.22 | 2.63 ± 0.11
16 | HMAKGLYYGSYRSPRVL [COB] | 1.6 ± 0.15 | 1.1 ± 0.12 | 1.3 ± 0.13 | 
17 | VPVRKFKGNNGVVVLRD [RPN2] |  | 2.88 ± 0.18 |  | 
18 | LATNSLVEEFMLLANIS [DIS3] | 1.39 ± 0.095 | 1.7 ± 0.099 | 1.74 ± 0.16 | 2.37 ± 0.071
19 | YLADDIDADSLEDIYTS [RPL5] | 2.68 ± 0.095 | 1.96 ± 0.08 | 2 ± 0.08 | 2.37 ± 0.065
20 | INVLTDQNPIQVVVDAI [RPS5] | 2.19 ± 0.044 | 2.59 ± 0.038 | 2.44 ± 0.055 | 2.05 ± 0.031

Row | Sequence | protein stability index (doa10∆) | protein stability index (pdr5∆) | protein stability index (san1∆) | protein stability index (ubr1∆)
21 | YISFIKDDRFVPVRKFK [RPN2] | 2.41 ± 0.048 | 2.82 ± 0.039 | 2.96 ± 0.041 | 2.85 ± 0.031
22 | WRSKRIEQLFPVRPVRV [RPC53] | 3.25 ± 0.14 | 3.11 ± 0.087 | 3.21 ± 0.071 | 3.08 ± 0.069
23 | KKSQCKKKTTLEDFENF [YIL149C/MLP2] | 2.87 ± 0.053 | 3.04 ± 0.051 | 3.08 ± 0.04 | 3.14 ± 0.048
24 | KPPTQKTDTKVSFRTHN [SRP21] | 2.52 ± 0.078 | 2.82 ± 0.072 | 2.57 ± 0.07 | 2.7 ± 0.065
25 | SHTGLVRKYDLNICRQC [RPS29B] | 2.18 ± 0.052 | 2.51 ± 0.068 | 1.94 ± 0.092 | 2.09 ± 0.088
26 | DPASFYLFDEIDAALDK [SMC3] | 2.89 ± 0.075 | 3.02 ± 0.082 | 2.61 ± 0.083 | 2.72 ± 0.046
27 | KEKWPSLELQSFQKIPL [YML103C/NUP188] | 2.27 ± 0.1 | 2.62 ± 0.12 | 2.03 ± 0.11 | 2.73 ± 0.11
28 | LADDDEERFSELFKGYL [RPL5] | 1.59 ± 0.13 | 2.05 ± 0.14 | 2.84 ± 0.2 | 3.01 ± 0.28
29 | QLDAYGEKKVGSNGELF [SWP82] | 3.28 ± 0.13 | 3.29 ± 0.089 | 3.62 ± 0.071 | 3.32 ± 0.12
30 | GENIDADNDGPRINNIS [SNF2] | 3.44 ± 0.09 | 3.53 ± 0.11 | 3.28 ± 0.065 | 3.02 ± 0.09
31 | FQLPTTCVSMAPIQLKI [RGR1] | 1.3 ± 0.051 | 1.76 ± 0.055 | 1.78 ± 0.06 | 1.67 ± 0.039
32 | KENFILDSLMKTTRLLL [YJL039C/NUP192] | 1.96 ± 0.057 | 1.64 ± 0.05 | 1.42 ± 0.095 | 1.61 ± 0.05
33 | LGPRGVSITPGKIEKIA [SRP21] | 2.02 ± 0.065 | 2.62 ± 0.049 | 1.98 ± 0.088 | 2.41 ± 0.039
34 | MKYVRETSGVTTALLKD [MED8] | 2.72 ± 0.099 | 3.31 ± 0.12 | 3 ± 0.081 | 2.21 ± 0.24
35 | EAMYKLQLASLQQKQRD [SMC3] | 2.71 ± 0.091 | 2.76 ± 0.078 | 2.52 ± 0.087 | 2.54 ± 0.063
36 | LVSVVEAFIASGITDPY [FAS2] | 1.42 ± 0.041 | 1.39 ± 0.042 | 1.67 ± 0.072 | 1.85 ± 0.035
37 | LLFWTDPRNLVNQTGST [YCG1] | 2.41 ± 0.065 | 2.66 ± 0.064 | 2.83 ± 0.055 | 2.81 ± 0.038
38 | EDDESLGHKELKVRKGH [RPB2] | 2.29 ± 0.071 | 2.54 ± 0.067 | 2.45 ± 0.076 | 2.97 ± 0.049
39 | LPLFYDLLNAASIESAD [IRR1] | 2.08 ± 0.047 | 2.17 ± 0.056 | 2.27 ± 0.047 | 2.78 ± 0.048
